Reference: paper PMC8999790, “The Transition of Photoreceptor Guanylate Cyclase Type 1 to the Active State” (International Journal of Molecular Sciences, 2022)

Columns and labels:
Assay type in all cases: biochemical, Homo sapiens
[1] = substrate: Nc1nc2c(ncn2[C@@H]2O[C@H](COP(=O)(O)OP(=O)(O)OP(=O)(O)O)[C@@H](O)[C@H]2O)c(=O)[nH]1; experiment: cells, lysate or membranes; settings: Mg-GTP, pH 7.2, 30 °C, half-maximal saturation
[2] = substrate: Nc1nc2c(ncn2[C@@H]2O[C@H](COP(=O)(O)OP(=O)(O)OP(=O)(O)O)[C@@H](O)[C@H]2O)c(=O)[nH]1; experiment: cGMP formation by HPLC in HEK293 membranes, Hill fit; settings: Mg-GTP, 5 uM GCAP1, <=10 nM free Ca2+ (2 mM EGTA), pH 7.2, 30 °C, half-maximal saturation, Hill h 1.75
Excerpt: cGMP formation by HPLC in HEK293 membranes, Hill fit on human GC-E + GCAP1

[3] = substrate: Nc1nc2c(ncn2[C@@H]2O[C@H](COP(=O)(O)OP(=O)(O)OP(=O)(O)O)[C@@H](O)[C@H]2O)c(=O)[nH]1; experiment: as above; settings: Mg-GTP, 5 uM GCAP2, <=10 nM free Ca2+ (2 mM EGTA), pH 7.2, 30 °C, half-maximal saturation, Hill h 1.76
Excerpt: cGMP formation by HPLC in HEK293 membranes, Hill fit on human GC-E + GCAP2

[4] = substrate: Nc1nc2c(ncn2[C@@H]2O[C@H](COP(=O)(O)OP(=O)(O)OP(=O)(O)O)[C@@H](O)[C@H]2O)c(=O)[nH]1; experiment: as above; settings: Mg-GTP, no GCAPs, <=10 nM free Ca2+ (2 mM EGTA), pH 7.2, 30 °C, half-maximal saturation, Hill h 1.58
Excerpt: cGMP formation by HPLC in HEK293 membranes, Hill fit on human GC-E (no GCAPs)

[5] = 5 uM GCAP1, <=10 nM free Ca2+ (2 mM EGTA), Hill h 1.75, apparent KM
[6] = 5 uM GCAP2, <=10 nM free Ca2+ (2 mM EGTA), Hill h 1.76, apparent KM
[7] = no GCAPs, <=10 nM free Ca2+ (2 mM EGTA), Hill h 1.58, apparent KM

B1: human GC-E + GCAP1 (Homo sapiens; V902L) (protein)
chain: AVFTVGVLGPWACDPIFSRARPDLAARLAAARLNRDPGLAGGPRFEVALLPEPCRTPGSLGAVSSALARVSGLVGPVNPAACRPAELLAEEAGIALVPWGCPWTQAEGTTAPAVTPAADALYALLRAFGWARVALVTAPQDLWVEAGRSLSTALRARGLPVASVTSMEPLDLSGAREALRKVRDGPRVTAVIMVMHSVLLGGEEQRYLLEAAEELGLTDGSLVFLPFDTIHYALSPGPEALAALANSSQLRRAHDAVLTLTRHCPSEGSVLDSLRRAQERRELPSDLNLQQVSPLFGTIYDAVFLLARGVAEARAAAGGRWVSGAAVARHIRDAQVPGFCGDLGGDEEPPFVLLDTDAAGDRLFATYMLDPARGSFLSAGTRMHFPRGGSAPGPDPSCWFDPNNICGGGLEPGLVFLGFLLVVGMGLAGAFLAHYVRHRLLHMQMVSGPNKIILTVDDITFLHPHGGTSRKVAQGSRSSLGARSMSDIRSGPSQHLDSPNIGVYEGDRVWLKKFPGDQHIAIRPATKTAFSKLQELRHENVALYLGLFLARGAEGPAALWEGNLAVVSEHCTRGSLQDLLAQREIKLDWMFKSSLLLDLIKGIRYLHHRGVAHGRLKSRNCIVDGRFVLKITDHGHGRLLEAQKVLPEPPRAEDQLWTAPELLRDPALERRGTLAGDVFSLAIIMQEVVCRSAPYAMLELTPEEVVQRVRSPPPLCRPLVSMDQAPVECILLMKQCWAEQPELRPSMDHTFDLFKNINKGRKTNIIDSMLRMLEQYSSNLEDLIRERTEELELEKQKTDRLLTQMLPPSVAEALKTGTPVEPEYFEQVTLYFSDIVGFTTISAMSEPIEVLDLLNDLYTLFDAIIGSHDVYKVETIGDAYMVASGLPQRNGQRHAAEIANMSLDILSAVGTFRMRHMPEVPVRIRIGLHSGPCVAGVVGLTMPRYCLFGDTVNTASRMESTGLPYRIHVNLSTVGILRALDSGYQVELRGRTELKGKGAEDTFWLVGRRGFNKPIPKPPDLQPGSSNHGISLQEIPPERRRKLEKARPGQFS
notes: full-length GC-E transiently expressed in HEK293, membrane suspension
[1]; [5]
  Km: 200 µM
  kcat/Km: 4000 M⁻¹ s⁻¹
[2]
  K0.5: 0.20 mM
  kcat/Km: 4000 M⁻¹ s⁻¹

B2: human GC-E + GCAP2 (Homo sapiens; V902L) (protein)
chain: B1 chain
notes: as for B1
[3]
  K0.5: 0.36 mM
  kcat/Km: 2200 M⁻¹ s⁻¹
[1]; [6]
  Km: 310 µM
  kcat/Km: 2200 M⁻¹ s⁻¹

B3: human GC-E (no GCAPs) (Homo sapiens; V902L) (protein)
chain: B1 chain
notes: full-length GC-E transiently expressed in HEK293, membrane suspension; no GCAP added
[1]; [7]
  Km: 340 µM
  kcat/Km: 2100 M⁻¹ s⁻¹
[4]
  K0.5: 0.37 mM
  kcat/Km: 2100 M⁻¹ s⁻¹
